{"source": "IntAct's records for PubMed 11163258", "parents": {"B1": {"name": "Platelet-activating factor acetylhydrolase IB subunit beta (Homo sapiens), P43034 (parent)", "chain": "MVLSQRQRDELNRAIADYLRSNGYEEAYSVFKKEAELDVNEELDKKYAGLLEKKWTSVIRLQKKVMELESKLNEAKEEFTSGGPLGQKRDPKEWIPRPPEKYALSGHRSPVTRVIFHPVFSVMVSASEDATIKVWDYETGDFERTLKGHTDSVQDISFDHSGKLLASCSADMTIKLWDFQGFECIRTMHGHDHNVSSVAIMPNGDHIVSASRDKTIKMWEVQTGYCVKTFTGHREWVRMVRPNQDGTLIASCSNDQTVRVWVVATKECKAELREHEHVVECISWAPESSYSSISEATGSETKKSGKPGPFLLSGSRDKTIKMWDVSTGMCLMTLVGHDNWVRGVLFHSGGKFILSCADDKTLRVWDYKNKRCMKTLNAHEHFVTSLDFHKTAPYVVTGSVDQTVKVWECR", "partner": "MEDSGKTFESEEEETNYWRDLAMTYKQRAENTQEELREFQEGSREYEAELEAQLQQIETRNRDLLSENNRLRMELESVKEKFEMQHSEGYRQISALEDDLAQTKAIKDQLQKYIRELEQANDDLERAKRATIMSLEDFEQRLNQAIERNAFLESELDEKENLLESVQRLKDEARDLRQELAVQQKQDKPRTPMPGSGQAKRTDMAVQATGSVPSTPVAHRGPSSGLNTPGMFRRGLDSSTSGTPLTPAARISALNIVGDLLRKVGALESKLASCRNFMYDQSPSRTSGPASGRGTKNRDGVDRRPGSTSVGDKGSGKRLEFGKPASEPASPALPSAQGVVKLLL"}}, "data": [{"variants_of": "B1", "settings": "with nde1_mouse Nde1, Q9CZA6", "values": [{"variant": "MVLSQRQRDELNRAIADYLRSNGYEEAYSVFKKEAELDVNEELDKKYAGLLEKKWTSVIRLQKKVMELESKLNEAKEEFTSGGPLGQKRDPKEWIPRPPEKYALSGHRSPVTRVIFHPVFSVMVSASEDATIKVWDYETGDFERTLKGHTDSVQDISFDHSGKLLASCPADMTIKLWDFQGFECIRTMHGHDHNVSSVAIMPNGDHIVSASRDKTIKMWEVQTGYCVKTFTGHREWVRMVRPNQDGTLIASCSNDQTVRVWVVATKECKAELREHEHVVECISWAPESSYSSISEATGSETKKSGKPGPFLLSGSRDKTIKMWDVSTGMCLMTLVGHDNWVRGVLFHSGGKFILSCADDKTLRVWDYKNKRCMKTLNAHEHFVTSLDFHKTAPYVVTGSVDQTVKVWECR", "note": "[S169P]", "effect of a mutation on the interaction": "decreasing interaction"}, {"variant": "MVLSQRQRDELNRAIADYLRSNGYEEAYSVFKKEAELDVNEELDKKYAGLLEKKWTSVIRLQKKVMELESKLNEAKEEFTSGGPLGQKRDPKEWIPRPPEKYALSGHRSPVTRVIFHPVFSVMVSASEDATIKVWDYETGDFERTLKGRTDSVQDISFDHSGKLLASCSADMTIKLWDFQGFECIRTMHGHDHNVSSVAIMPNGDHIVSASRDKTIKMWEVQTGYCVKTFTGHREWVRMVRPNQDGTLIASCSNDQTVRVWVVATKECKAELREHEHVVECISWAPESSYSSISEATGSETKKSGKPGPFLLSGSRDKTIKMWDVSTGMCLMTLVGHDNWVRGVLFHSGGKFILSCADDKTLRVWDYKNKRCMKTLNAHEHFVTSLDFHKTAPYVVTGSVDQTVKVWECR", "note": "[H149R]", "effect of a mutation on the interaction": "decreasing interaction"}]}]}
